Results as given in the supplement of paper PMC10567573.

B1: TRIM43 (parent)
chain: YQEIFQQLQRSWVKMDQKSKHLKE
B2: SERPINB5 (parent)
chain: FPESETKECPFRVNKVCGAACSSK

Variants of: B1
Experiment: protein stability index of a GFP-peptide fusion (GPS, HEK-293T) (PSI 1-6); higher = more stable
Details: c terminus: a fixed tail appended
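Further: lentivirally expressed fusions sorted by FACS into six bins by GFP to DsRed ratio, PSI derived from sequencing read proportions per bin multiplied by bin number.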

Variant	protein stability index
YQEIFQQLQRSWVKMDQKSKHLKM [E24M]	1.71
YQEIFQQLQRSWVKMDQKSKHLKK [E24K]	1.99
YHEIFQQLQRSWVKMDQKSKHLKE [Q2H]	1.58
YTEIFQQLQRSWVKMDQKSKHLKE [Q2T]	2.18
YQEIFQQLQRSWVKMDEKSKHLKE [Q17E]	1.98
YQHIFQQLQRSWVKMDQKSKHLKE [E3H]	2.47
YQEIFQQLQRSWVKMDQKSYHLKE [K20Y]	1.68
YQEIFQILQRSWVKMDQKSKHLKE [Q7I]	2.08
YQEIFQNLQRSWVKMDQKSKHLKE [Q7N]	2.23
YQEAFQQLQRSWVKMDQKSKHLKE [I4A]	1.98
YQENFQQLQRSWVKMDQKSKHLKE [I4N]	1.61
YQEIFQQLQRPWVKMDQKSKHLKE [S11P]	2.3

Variants of: B2
Experiment: as above
Details: c terminus: a fixed tail appended

Variant	protein stability index
FPESETKECPFRVNKVCGDACSSK [A19D]	3.03
FPESETKECPFRVNKVCGLACSSK [A19L]	2.96
FPESETKECPFRVNKVCGGACSSK [A19G]	2.81
FPESETKECPFRVNKVCGRACSSK [A19R]	2.52
FPESETKECPFRVNKVCGNACSSK [A19N]	2.61
FPESETKECPFRVNKVCGIACSSK [A19I]	2.63
FPESETKECPFRVNKVNGAACSSK [C17N]	2.99
FPESETKECPFRVNKVAGAACSSK [C17A]	3.29
FPESETKECPFRVNKVFGAACSSK [C17F]	2.79
FPESETKECPFRVNKVEGAACSSK [C17E]	2.98
FPESETKECPFRVNKVMGAACSSK [C17M]	2.49
FPESEVKECPFRVNKVCGAACSSK [T6V]	3.18
FPESELKECPFRVNKVCGAACSSK [T6L]	2.1
FPESEPKECPFRVNKVCGAACSSK [T6P]	2.91
FPESEKKECPFRVNKVCGAACSSK [T6K]	2.28
FPESEAKECPFRVNKVCGAACSSK [T6A]	2.68
FPESEDKECPFRVNKVCGAACSSK [T6D]	2.47
FPESEWKECPFRVNKVCGAACSSK [T6W]	2.65
FPESESKECPFRVNKVCGAACSSK [T6S]	2.36
FPENETKECPFRVNKVCGAACSSK [S4N]	3.17
FPECETKECPFRVNKVCGAACSSK [S4C]	3.16
FPEAETKECPFRVNKVCGAACSSK [S4A]	2.46
FPEPETKECPFRVNKVCGAACSSK [S4P]	3.49
FPEQETKECPFRVNKVCGAACSSK [S4Q]	3.83
FPETETKECPFRVNKVCGAACSSK [S4T]	3.34
FPEVETKECPFRVNKVCGAACSSK [S4V]	3.08

Variant	protein stability index
FPEDETKECPFRVNKVCGAACSSK [S4D]	4.14
FPEMETKECPFRVNKVCGAACSSK [S4M]	2.48
FPESETKECPFRVNKLCGAACSSK [V16L]	1.86
FPESETKECPFRVNKKCGAACSSK [V16K]	2.61
FPESETKECPFRVNKCCGAACSSK [V16C]	2.24
FPESETKECPFRVNKDCGAACSSK [V16D]	2.89
FPESETKECPFRVNKYCGAACSSK [V16Y]	2.14
FPESETKECPFRVNKRCGAACSSK [V16R]	2.8
FPESETKECPFRVNKVCGAARSSK [C21R]	2.56
FPESETKECPFRVNKVCGAAVSSK [C21V]	2.56
FPESETKECPFRVNKVCGAAGSSK [C21G]	2.69
FPESETKECPFRVNKVCGAAPSSK [C21P]	2.23
FPESETKECPFRVNKVCGAAISSK [C21I]	2.04
FPESETKECPFRVNKVCGAAASSK [C21A]	2.76
FPESETKECPFRVNKVCGAASSSK [C21S]	2.9
FPESETKECPFRVNKVCGAALSSK [C21L]	2.2
FPESETKECPFRVNKVCGAANSSK [C21N]	2.44
PPESETKECPFRVNKVCGAACSSK [F1P]	4.52
HPESETKECPFRVNKVCGAACSSK [F1H]	4.54
APESETKECPFRVNKVCGAACSSK [F1A]	4.46
QPESETKECPFRVNKVCGAACSSK [F1Q]	4.5
LPESETKECPFRVNKVCGAACSSK [F1L]	4.93
DPESETKECPFRVNKVCGAACSSK [F1D]	5.41
FYESETKECPFRVNKVCGAACSSK [P2Y]	3.67
FDESETKECPFRVNKVCGAACSSK [P2D]	4.73
FRESETKECPFRVNKVCGAACSSK [P2R]	4.19

Variant	protein stability index
FFESETKECPFRVNKVCGAACSSK [P2F]	4.09
FNESETKECPFRVNKVCGAACSSK [P2N]	3.63
FSESETKECPFRVNKVCGAACSSK [P2S]	3.66
FHESETKECPFRVNKVCGAACSSK [P2H]	2.19
FMESETKECPFRVNKVCGAACSSK [P2M]	3.77
FKESETKECPFRVNKVCGAACSSK [P2K]	4.63
FPESETKECPFRVEKVCGAACSSK [N14E]	3.29
FPESETKECPFRVLKVCGAACSSK [N14L]	2.35
FPESETKECPFRVKKVCGAACSSK [N14K]	2.07
FPESETKECPFRVGKVCGAACSSK [N14G]	2.02
FPESETKECPFRVPKVCGAACSSK [N14P]	2.47
FPESETKECPFRVVKVCGAACSSK [N14V]	2.08
FPESETKECPFRVCKVCGAACSSK [N14C]	2.69
FPESETKECPFRVHKVCGAACSSK [N14H]	3.27
FPESETKECPFRVQKVCGAACSSK [N14Q]	3.29
FPESETKECPFRVAKVCGAACSSK [N14A]	2.2
FPESETKECPFRVIKVCGAACSSK [N14I]	1.96
FPESETKECPFRVTKVCGAACSSK [N14T]	2.5
FPESETKECPFRVWKVCGAACSSK [N14W]	2.4
FPESETKECPFRVDKVCGAACSSK [N14D]	3.17
FPESETKECPFRENKVCGAACSSK [V13E]	4.17
FPESETKECPFRHNKVCGAACSSK [V13H]	4.26
FPESETKECPFRQNKVCGAACSSK [V13Q]	4.03
FPESETKECPFRNNKVCGAACSSK [V13N]	3.71
FPESETKECPFRKNKVCGAACSSK [V13K]	3.93
FPESVTKECPFRVNKVCGAACSSK [E5V]	2.52

Variant	protein stability index
FPESKTKECPFRVNKVCGAACSSK [E5K]	1.67
FPESITKECPFRVNKVCGAACSSK [E5I]	1.8
FPESGTKECPFRVNKVCGAACSSK [E5G]	1.68
FPESDTKECPFRVNKVCGAACSSK [E5D]	1.92
FPESFTKECPFRVNKVCGAACSSK [E5F]	1.6
FPESETKICPFRVNKVCGAACSSK [E8I]	2.13
FPESETKDCPFRVNKVCGAACSSK [E8D]	2.16
FPESETKLCPFRVNKVCGAACSSK [E8L]	2.33
FPESETKECPFRVNKVCGAACSSN [K24N]	1.89
FPESETKECPFRVNKVCGAACSSP [K24P]	2.21
FPESETKECPFRVNKVCGAACSSC [K24C]	3.31
FPESETKECPFRVNKVCGAACSSE [K24E]	2.96
FPESETKECPFRVNKVCGAACSSH [K24H]	2.81
FPESETKECPFRVNKVCGAACSSS [K24S]	2.25
FPESETKECPFRVNKVCGAACSSF [K24F]	2.02
FPESETKECPFRVNKVCGAACSSG [K24G]	2.57
FPESETKECIFRVNKVCGAACSSK [P10I]	2.53
FPESETKECVFRVNKVCGAACSSK [P10V]	3.05
FPESETKECDFRVNKVCGAACSSK [P10D]	4.78
FPESETKECTFRVNKVCGAACSSK [P10T]	3.67
FPESETKECYFRVNKVCGAACSSK [P10Y]	2.3
FPESETKECCFRVNKVCGAACSSK [P10C]	3.05
FPESETKECGFRVNKVCGAACSSK [P10G]	4.1
FPESETKECNFRVNKVCGAACSSK [P10N]	4.02
FPESETKECPFRVNKVCMAACSSK [G18M]	2.56
FPESETKECPFRVNKVCPAACSSK [G18P]	2.42

Variant	protein stability index
FPESETKECPFRVNKVCIAACSSK [G18I]	2.1
FPESETKECPFRVNKVCLAACSSK [G18L]	2.05
FPESETKECPFRVNKVCRAACSSK [G18R]	2.43
FPESETKECPFRVNKVCGALCSSK [A20L]	2.79
FPESETKECPFRVNKVCGAPCSSK [A20P]	2.49
FPESETKECPFRVNKVCGASCSSK [A20S]	2.29
FPESETKECPFRVNKVCGAHCSSK [A20H]	2.58
FPESETKECPFRVNKVCGAKCSSK [A20K]	2.26
FPESETKECPFRVNKVCGAMCSSK [A20M]	2.01
FPESETKECPFRVNKVCGAICSSK [A20I]	2.32
FPESETKECPFRVNKVCGAWCSSK [A20W]	1.94
FPESETKECPFRVNKVCGAVCSSK [A20V]	2.67
FPTSETKECPFRVNKVCGAACSSK [E3T]	1.43
FPVSETKECPFRVNKVCGAACSSK [E3V]	1.99
FPLSETKECPFRVNKVCGAACSSK [E3L]	1.43
FPMSETKECPFRVNKVCGAACSSK [E3M]	1.45
FPNSETKECPFRVNKVCGAACSSK [E3N]	2.4
FPASETKECPFRVNKVCGAACSSK [E3A]	1.42
FPQSETKECPFRVNKVCGAACSSK [E3Q]	1.75
FPFSETKECPFRVNKVCGAACSSK [E3F]	1.75
FPGSETKECPFRVNKVCGAACSSK [E3G]	1.88
FPWSETKECPFRVNKVCGAACSSK [E3W]	2.29
FPDSETKECPFRVNKVCGAACSSK [E3D]	2.42
FPPSETKECPFRVNKVCGAACSSK [E3P]	2.15
FPKSETKECPFRVNKVCGAACSSK [E3K]	2.09
FPESETKECPQRVNKVCGAACSSK [F11Q]	5.04

Variant	protein stability index
FPESETKECPTRVNKVCGAACSSK [F11T]	4.45
FPESETKECPVRVNKVCGAACSSK [F11V]	4.25
FPESETKECPERVNKVCGAACSSK [F11E]	4.43
FPESETKECPNRVNKVCGAACSSK [F11N]	5.12
FPESETKECPRRVNKVCGAACSSK [F11R]	4.67
FPESETKECPMRVNKVCGAACSSK [F11M]	4.48
FPESETKECPPRVNKVCGAACSSK [F11P]	4.96
FPESETGECPFRVNKVCGAACSSK [K7G]	2.52
FPESETQECPFRVNKVCGAACSSK [K7Q]	2.86
FPESETIECPFRVNKVCGAACSSK [K7I]	2.55
FPESETLECPFRVNKVCGAACSSK [K7L]	2.5
FPESETMECPFRVNKVCGAACSSK [K7M]	2.5
FPESETTECPFRVNKVCGAACSSK [K7T]	3.1
FPESETCECPFRVNKVCGAACSSK [K7C]	3.21
FPESETKECPFRVNFVCGAACSSK [K15F]	2.12
FPESETKECPFRVNSVCGAACSSK [K15S]	2.32
FPESETKECPFRVNWVCGAACSSK [K15W]	1.32
FPESETKECPFRVNGVCGAACSSK [K15G]	2.22
FPESETKECPFRVNMVCGAACSSK [K15M]	2.38
FPESETKECPFRVNYVCGAACSSK [K15Y]	2.4
FPESETKECPFRVNKVCGAACSIK [S23I]	2.26
FPESETKECPFRVNKVCGAACSKK [S23K]	2.97
FPESETKECPFRVNKVCGAACSCK [S23C]	2.66
FPESETKECPFRVNKVCGAACSVK [S23V]	2.42
FPESETKECPFRVNKVCGAACSEK [S23E]	3.16
FPESETKECPFRVNKVCGAACSHK [S23H]	3.33

Variant	protein stability index
FPESETKEQPFRVNKVCGAACSSK [C9Q]	4.03
FPESETKETPFRVNKVCGAACSSK [C9T]	2.64
FPESETKEFPFRVNKVCGAACSSK [C9F]	1.81
FPESETKEEPFRVNKVCGAACSSK [C9E]	4.84
FPESETKEKPFRVNKVCGAACSSK [C9K]	4.37
FPESETKENPFRVNKVCGAACSSK [C9N]	3
FPESETKELPFRVNKVCGAACSSK [C9L]	3.6
FPESETKECPFNVNKVCGAACSSK [R12N]	3.66
FPESETKECPFAVNKVCGAACSSK [R12A]	3.76
FPESETKECPFPVNKVCGAACSSK [R12P]	4.75
FPESETKECPFVVNKVCGAACSSK [R12V]	2.43
FPESETKECPFSVNKVCGAACSSK [R12S]	3.95
FPESETKECPFDVNKVCGAACSSK [R12D]	4.86
FPESETKECPFGVNKVCGAACSSK [R12G]	4.11
FPESETKECPFRVNKVCGAACHSK [S22H]	2.55
FPESETKECPFRVNKVCGAACASK [S22A]	3.52
FPESETKECPFRVNKVCGAACDSK [S22D]	2.66
FPESETKECPFRVNKVCGAACWSK [S22W]	2.03
FPESETKECPFRVNKVCGAACYSK [S22Y]	2.46
FPESETKECPFRVNKVCGAACKSK [S22K]	2.39
